The results in this text go back to patent US6541208B1, “Diagnostic method for distinguishing HIV-associated dementia from other forms of dementia” (University of Maryland Biotechnology Institute, priority 1998, dated 2003).

“Also recorded” adds a separate entry of the source.

Test [1] has as its system astrocytic MCP-1 expression. Put plainly: Northern blot analysis of MCP-1 RNA in stimulated human astrocytes. Type of test: cell-based. The source says:
FIG. 1A—Total RNA was extracted from T lymphoblastoid HUT 78 cells (ATCC), and from variously treated human astrocytes. Ten μg per lane were then run on a 1% agarose-6% formaldehyde gel. Following transfer of RNA to nitrocellulose, the blot was probed with the full-length cDNA for MCP-1, and subsequently, RANTES. RNA from untreated astrocytes was run in lanes 2 and 4. […] Astrocytic expression of RANTES was not detected.
FIG. 1B—Similar experience except that RNA from HUT 78 cells (lane 1) was compared to RNA from astrocytes that were unstimulated (lane 2) or stimulated for 2 hr with 100 nM Tat (lane 3), 25 μM TPCK followed by 100 nM Tat (lane 4) or 25 μM TPCK (lane 5).
Brain tissue from 12-14 wk human fetuses was obtained in accordance with NIH guidelines. The tissue was mechanically disrupted by aspiration through a 19-gauge needle, washed in Eagle's minimal essential medium (EMEM) and then distributed into tissue culture flasks. Cells were maintained in EMEM containing 10% fetal bovine serum, 2 mM L-glutamine and 5 μg/ml gentamicin. Several days later, flasks were placed into an orbital incubator shaker at 37° C. and 210 rpm for 6 hr. Non-adherent cells were removed. A portion of the adherent cells were later stained with an antibody to glial fibrallary acidic protein and only those cultures which were >95% positive were used. […]

For test [2], the system named is astrocytic release of MCP-1. Put plainly: Immunoassay (ELISA) and Western blot of MCP-1 in astrocyte supernatants. Type of test: cell-based, human. The procedure:
FIG. 2A—Astrocytes were grown to near confluency in […]. Each well contained 10^6 cells in 1 ml medium. Medium was then changed and astrocytes were stimulated with exogenous Tat in doses ranging from 0.01 to 1.0 μM. Twenty hr later, samples were taken for analysis by immunoassay (R&D Systems). […] Data are shown as means +S.E. for three replicates.
FIG. 2B—Similar experiment except that astrocytes were stimulated with 100 nM Tat or with an equivalent amount of Tat that had first been either digested with tripsin (Tat-tr) or immunoabsorbed (Tat-im).
FIG. 3—Western blot analysis of MCP-1 in astrocyte supernatants. In lanes 2-7, 50 μg of protein from variously treated astrocyte supernatants were run on a 15% Tris/Glycine denaturing gel. Three ng of non-glycosylated recombinant MCP-1 (R&D Systems) were run in lane 1 as a control. Following protein transfer to nitrocellulose, the blot was probed with a polyclonal antibody with recognized human MCP-1 (R&D Systems). After washing, an appropriate secondary antibody was applied (horse radish peroxidase conjugated anti-goat, [Santa-Cruz Biotechnology]) and electrochemilurninescence (Amersham) was used to visualize the bands. […] The lower arrow represents a band, which runs with an apparent molecular mass of 9 kDa while the upper band, of slighter high molecular mass, is likely to represent MCP-1, which has been altered by the addition of O-linked carbohydrates. Both forms of MCP-1 are active in vitro.
Astrocytes (10^6 per 1 ml medium) were stimulated with 100 nM HIV-1IIIB gp41 (Intracel) or 100 nM HIV-1IIB gp 120 (Intracel), and supernantants were assessed 24 hr. later by immunoassay (R&D Systems).
Trypsin digestion of Tat was performed by the addition of 25 μl of 0.25% trypsin per μg of Tat. The mixture was then incubated for 4 hr. before the 1:1 addition of soybean tripsin inhibitor (Sigma).
Immunoabsorption of Tat was performed as described previously by Magnusson et al. (1995). Briefly, a Tat specific monoclonal antibody (Intracel) was bound to protein A-sepharose (Pharmacia), washed, and then incubated with Tat for 60 min at room temperature, followed by centrifugation.
(§1) To determine whether increased expression of MCP-1 would correlate with increased protein synthesis or release, we next analyzed the supernatants of Tat treated astrocytes by ELISA and Western blot. […] This increase was specific in that astrocytic release of RANTES, MIP-1α and MIP-1β was not observed.

The test system of test [3] is astrocytic release of RANTES, MIP-1α and MIP-1β. The test can be described thus: ELISA detection of RANTES, MIP-1α and MIP-1β in astrocyte supernatants. It is filed as cell-based, human. The settings on record: Tat treated astrocytes; ELISA detection limit 10 pg/ml. The procedure:
MIP1-1α, MIP-1β and RANTES were detected by ELISA (R&D Systems). These ELISAs could detect concentrations as low as 10 pg/ml. Protein measurements were determined by comparison to a standard curve, run in duplicate with each assay.
as §1

For test [4], the system named is astrocytes. The test can be described thus: Astrocyte proliferation assay (tritiated thymidine). It is filed as cell-based, human. The settings on record: Tat 10-1000 nM, twenty hr after administration. How it is done:
Astrocytes were grown in 96 well plates. At 70% confluency, cells were treated with varying concentrations of exogenous Tat, in media, which contained 1 μCi per well of tritiated thymidine (New England Nuclear). […] Filters were then dried and placed into scintillation fluid for counting in a Betaplate Apparatus.

B1: Tat: Highly purified recombinant Tat1-72, HIV-1 encoded transactivator protein (protein, UniProt P04608 1-72, looked up, fragment)
chain: MEPVDPRLEPWKHPGSQPKTACTNCYCKKCCFHCQVCFITKALGISYGRKKRRQRRRAHQNSQTHQASLSKQ
Take B1: the “astrocytic MCP-1 expression (MCP-1 encoding RNA)” value in test [1] (100 nM Tat, 2 or 4 hr stimulation, human astrocytes) is “increase in astrocytic MCP-1 expression; also recorded: increase in MCP-1 encoding RNA as early as 2 hr”. Also, the “release of MCP-1 after pre-treatment of Tat with trypsin” value in test [2] (100 nM equivalent of Tat digested with trypsin (Tat-tr)) is reported as “could be inhibited”. The “release of MCP-1 after immunoabsorption of Tat with a specific antibody” value in test [2] (100 nM equivalent of immunoabsorbed Tat (Tat-im)) is “could be inhibited”. Also, the “astrocytic release of MCP-1” value in test [2] (Tat 0.01 to 1.0 μM, 20 hr, 10^6 cells in 1 ml medium) was “significant increase in MCP-1 release; also recorded: dose-dependent increase in astrocytic release of MCP-1”. In addition, the “concentrations of Tat sufficient to increase astrocytic MCP-1 release” value in test [2] (human astrocytes) was “low nanomolar”. The “astrocytic release of RANTES, MIP-1α and MIP-1β” value in test [3] is listed as “not observed”. Also, in test [4], the astrocyte proliferation result is listed as “no measurable increase in astrocyte proliferation”.

B2: Tat1-86: Tat1-86 (Intracel), HIV-1 Tat protein (protein, UniProt P04608 1-86, looked up)
chain: MEPVDPRLEPWKHPGSQPKTACTNCYCKKCCFHCQVCFITKALGISYGRKKRRQRRRAHQNSQTHQASLSKQPTSQPRGDPTGPKE
modifications: full-length
notes: Tat1-86 (Intracel), HIV-1 Tat protein
Take B2: in test [1] (Tat1-86 (Intracel) versus recombinant Tat1-72), the “ability to increase astrocytic expression of MCP-1, compared with Tat1-72” value is listed as “similar”.
